Data from patent publication US20080008707A1, “Denatured collagen peptides and uses thereof” (Cell-Matrix, Inc., priority 2006, published 2008).
pKd: −log10 of the molar value. Values belong to the substance of their own block, whether it stands above or below them.

Key:
[1] = target: human heat-denatured collagen type IV (human); experiment: ELISA (data not shown)
denatured collagen V = experiment: ELISA (data not shown)
denatured collagen III = experiment: ELISA (data not shown)
[2] = target: human heat-denatured collagen type IV (human); experiment: ELISA, wells coated with human heat-denatured collagen IV, anti-mouse IgM-HRP, read at 450 nm
[3] = target: denatured collagen type-I (human) (UniProt P02452); experiment: cell-based or functional assay
UniProt P02452, sequence (P02452 21-1464 V1081A/Q1391K, chain 1 of 2): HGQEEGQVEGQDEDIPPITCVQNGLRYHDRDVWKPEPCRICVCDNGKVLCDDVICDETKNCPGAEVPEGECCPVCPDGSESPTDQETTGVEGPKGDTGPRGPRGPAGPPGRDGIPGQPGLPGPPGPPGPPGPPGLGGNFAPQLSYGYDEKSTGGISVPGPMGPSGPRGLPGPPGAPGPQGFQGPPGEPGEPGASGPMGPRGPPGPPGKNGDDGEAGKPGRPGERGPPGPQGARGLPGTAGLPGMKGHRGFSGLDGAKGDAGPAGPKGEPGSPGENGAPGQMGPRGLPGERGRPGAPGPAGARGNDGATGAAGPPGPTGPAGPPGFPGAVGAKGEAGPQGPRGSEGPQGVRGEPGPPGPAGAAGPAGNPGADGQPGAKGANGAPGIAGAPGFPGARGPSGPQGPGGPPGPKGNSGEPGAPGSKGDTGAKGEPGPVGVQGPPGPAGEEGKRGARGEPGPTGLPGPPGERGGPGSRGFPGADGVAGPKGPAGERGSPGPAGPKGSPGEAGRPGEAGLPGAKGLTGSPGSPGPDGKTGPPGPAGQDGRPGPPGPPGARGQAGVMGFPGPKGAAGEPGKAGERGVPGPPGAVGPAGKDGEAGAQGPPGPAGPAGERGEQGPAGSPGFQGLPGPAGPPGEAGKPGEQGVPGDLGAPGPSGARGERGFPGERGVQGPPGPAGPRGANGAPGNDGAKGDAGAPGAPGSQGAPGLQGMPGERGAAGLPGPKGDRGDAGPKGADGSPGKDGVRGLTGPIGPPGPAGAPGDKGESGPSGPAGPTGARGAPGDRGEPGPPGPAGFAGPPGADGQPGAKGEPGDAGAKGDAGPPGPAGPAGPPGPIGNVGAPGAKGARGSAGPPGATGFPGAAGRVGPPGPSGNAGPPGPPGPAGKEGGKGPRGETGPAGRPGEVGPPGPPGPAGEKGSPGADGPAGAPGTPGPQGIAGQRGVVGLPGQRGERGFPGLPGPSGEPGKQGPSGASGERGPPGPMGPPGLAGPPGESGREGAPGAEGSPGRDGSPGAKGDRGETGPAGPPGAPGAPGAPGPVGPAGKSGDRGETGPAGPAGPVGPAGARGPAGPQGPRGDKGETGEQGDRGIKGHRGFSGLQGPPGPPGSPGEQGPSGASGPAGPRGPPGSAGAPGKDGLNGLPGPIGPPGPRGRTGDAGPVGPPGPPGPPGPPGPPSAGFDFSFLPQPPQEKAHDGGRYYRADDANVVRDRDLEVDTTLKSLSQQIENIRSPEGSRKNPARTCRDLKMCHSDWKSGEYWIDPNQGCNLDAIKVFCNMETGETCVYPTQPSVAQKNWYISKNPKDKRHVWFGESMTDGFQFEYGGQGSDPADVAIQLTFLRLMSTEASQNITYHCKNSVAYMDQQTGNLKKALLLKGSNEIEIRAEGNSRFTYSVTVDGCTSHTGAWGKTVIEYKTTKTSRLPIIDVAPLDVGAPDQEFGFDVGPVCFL
UniProt P02452, sequence (P02452 other isoform, or with tags, fused parts or gaps, chain 2 of 2): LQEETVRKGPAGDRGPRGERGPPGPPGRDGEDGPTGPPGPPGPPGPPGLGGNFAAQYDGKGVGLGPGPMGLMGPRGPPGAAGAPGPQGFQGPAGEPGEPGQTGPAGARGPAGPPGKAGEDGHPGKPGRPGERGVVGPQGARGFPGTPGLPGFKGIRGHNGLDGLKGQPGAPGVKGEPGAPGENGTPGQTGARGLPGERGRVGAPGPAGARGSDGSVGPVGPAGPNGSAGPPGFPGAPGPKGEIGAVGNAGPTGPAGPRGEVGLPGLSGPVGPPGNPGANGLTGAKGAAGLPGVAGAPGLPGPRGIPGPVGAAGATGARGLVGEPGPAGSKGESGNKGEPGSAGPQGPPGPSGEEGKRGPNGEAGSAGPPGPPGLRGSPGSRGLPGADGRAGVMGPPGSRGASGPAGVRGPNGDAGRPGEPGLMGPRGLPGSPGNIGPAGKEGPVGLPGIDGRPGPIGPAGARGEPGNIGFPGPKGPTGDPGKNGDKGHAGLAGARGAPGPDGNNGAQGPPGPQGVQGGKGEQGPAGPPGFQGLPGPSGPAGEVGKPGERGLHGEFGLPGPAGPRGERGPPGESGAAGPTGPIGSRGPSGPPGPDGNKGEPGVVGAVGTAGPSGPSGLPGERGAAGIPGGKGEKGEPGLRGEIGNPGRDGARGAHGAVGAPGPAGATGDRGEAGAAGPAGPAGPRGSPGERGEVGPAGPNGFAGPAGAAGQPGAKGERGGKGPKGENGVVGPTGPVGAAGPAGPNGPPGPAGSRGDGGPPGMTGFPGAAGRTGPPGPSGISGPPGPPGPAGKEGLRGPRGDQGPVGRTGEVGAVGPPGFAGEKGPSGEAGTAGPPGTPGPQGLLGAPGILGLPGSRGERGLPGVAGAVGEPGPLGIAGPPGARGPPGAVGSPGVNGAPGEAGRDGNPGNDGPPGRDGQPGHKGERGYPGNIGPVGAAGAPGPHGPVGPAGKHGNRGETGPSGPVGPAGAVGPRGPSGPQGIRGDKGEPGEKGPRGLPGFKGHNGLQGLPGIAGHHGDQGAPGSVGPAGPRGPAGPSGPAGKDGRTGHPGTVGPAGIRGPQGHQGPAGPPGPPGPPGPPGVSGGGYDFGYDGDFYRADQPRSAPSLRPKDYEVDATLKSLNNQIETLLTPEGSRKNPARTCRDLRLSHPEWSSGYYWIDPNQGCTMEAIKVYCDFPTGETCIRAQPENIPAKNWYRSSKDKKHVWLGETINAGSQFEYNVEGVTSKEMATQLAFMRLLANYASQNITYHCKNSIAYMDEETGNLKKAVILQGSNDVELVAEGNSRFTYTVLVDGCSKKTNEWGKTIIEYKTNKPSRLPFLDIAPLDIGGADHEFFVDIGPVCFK

[4] = target: human heat-denatured collagen type IV (human); experiment: ELISA
[5] = target: denatured collagen type-I (human) (UniProt P02452); experiment: ELISA
[6] = target: biotinylated synthetic collagen peptide α1(IV) P1337-Y1352 (human); experiment: SPR (Biacore), medium density biotinylated peptide on streptavidin chip, monomeric D93 Fab
[7] = target: human heat-denatured collagen type IV (human); experiment: SPR, medium density denatured collagen IV surface, avidity model (second binding step), CLAMP
[8] = target: human heat-denatured collagen type IV (human); experiment: SPR, high density denatured collagen IV surface, avidity model (second binding step), CLAMP
[9] = target: human heat-denatured collagen type IV (human); experiment: SPR, high density denatured collagen IV surface, avidity model, CLAMP
[10] = target: biotinylated synthetic collagen peptide α1(IV) P1337-Y1352 (human); experiment: SPR, medium density biotinylated peptide surface on streptavidin, avidity model, CLAMP
[11] = target: biotinylated synthetic collagen peptide α1(IV) P1337-Y1352 (human); experiment: SPR (Biacore), low density biotinylated peptide on streptavidin chip, monomeric D93 Fab
[12] = target: human heat-denatured collagen type IV (human); experiment: SPR (Biacore), medium density dn-collagen on CM5 chip, monomeric (one Fab region) binding
[13] = target: human heat-denatured collagen type IV (human); experiment: SPR (Biacore), low density dn-collagen on CM5 chip, monomeric (one Fab region) binding
[14] = target: biotinylated synthetic collagen peptide α1(IV) P1337-Y1352 (human); experiment: SPR, high density biotinylated peptide surface on streptavidin, avidity model (second binding step), CLAMP
[15] = target: biotinylated synthetic collagen peptide α1(IV) P1337-Y1352 (human); experiment: SPR (Biacore), high density biotinylated peptide on streptavidin chip, monomeric D93 Fab
[16] = target: human heat-denatured collagen type IV (human); experiment: SPR (Biacore), high density dn-collagen on CM5 chip, monomeric (one Fab region) binding
[17] = target: human heat-denatured collagen type IV (human); experiment: SPR, low density denatured collagen IV surface, avidity model (second binding step), CLAMP
[18] = target: biotinylated synthetic collagen peptide α1(IV) P1337-Y1352 (human); experiment: SPR, high density biotinylated peptide surface on streptavidin, avidity model, CLAMP
[19] = target: biotinylated synthetic collagen peptide α1(IV) P1337-Y1352 (human); experiment: SPR, medium density biotinylated peptide surface on streptavidin, avidity model (second binding step), CLAMP
[20] = target: human heat-denatured collagen type IV (human); experiment: SPR, medium density denatured collagen IV surface, avidity model, CLAMP
[21] = target: biotinylated synthetic collagen peptide α1(IV) P1337-Y1352 (human); experiment: SPR, low density biotinylated peptide surface on streptavidin, simple 1:1 interaction model, CLAMP
[22] = target: dn-collagen or synthetic peptide (sensor chips with a low or medium density); experiment: SPR (Biacore), bivalent antibody binding, avidity model
[23] = target: human heat-denatured collagen type IV (human); experiment: SPR, low density denatured collagen IV surface, avidity model, CLAMP

human heat-denatured collagen type IV (human), sequence (P08572 other isoform, or with tags, fused parts or gaps): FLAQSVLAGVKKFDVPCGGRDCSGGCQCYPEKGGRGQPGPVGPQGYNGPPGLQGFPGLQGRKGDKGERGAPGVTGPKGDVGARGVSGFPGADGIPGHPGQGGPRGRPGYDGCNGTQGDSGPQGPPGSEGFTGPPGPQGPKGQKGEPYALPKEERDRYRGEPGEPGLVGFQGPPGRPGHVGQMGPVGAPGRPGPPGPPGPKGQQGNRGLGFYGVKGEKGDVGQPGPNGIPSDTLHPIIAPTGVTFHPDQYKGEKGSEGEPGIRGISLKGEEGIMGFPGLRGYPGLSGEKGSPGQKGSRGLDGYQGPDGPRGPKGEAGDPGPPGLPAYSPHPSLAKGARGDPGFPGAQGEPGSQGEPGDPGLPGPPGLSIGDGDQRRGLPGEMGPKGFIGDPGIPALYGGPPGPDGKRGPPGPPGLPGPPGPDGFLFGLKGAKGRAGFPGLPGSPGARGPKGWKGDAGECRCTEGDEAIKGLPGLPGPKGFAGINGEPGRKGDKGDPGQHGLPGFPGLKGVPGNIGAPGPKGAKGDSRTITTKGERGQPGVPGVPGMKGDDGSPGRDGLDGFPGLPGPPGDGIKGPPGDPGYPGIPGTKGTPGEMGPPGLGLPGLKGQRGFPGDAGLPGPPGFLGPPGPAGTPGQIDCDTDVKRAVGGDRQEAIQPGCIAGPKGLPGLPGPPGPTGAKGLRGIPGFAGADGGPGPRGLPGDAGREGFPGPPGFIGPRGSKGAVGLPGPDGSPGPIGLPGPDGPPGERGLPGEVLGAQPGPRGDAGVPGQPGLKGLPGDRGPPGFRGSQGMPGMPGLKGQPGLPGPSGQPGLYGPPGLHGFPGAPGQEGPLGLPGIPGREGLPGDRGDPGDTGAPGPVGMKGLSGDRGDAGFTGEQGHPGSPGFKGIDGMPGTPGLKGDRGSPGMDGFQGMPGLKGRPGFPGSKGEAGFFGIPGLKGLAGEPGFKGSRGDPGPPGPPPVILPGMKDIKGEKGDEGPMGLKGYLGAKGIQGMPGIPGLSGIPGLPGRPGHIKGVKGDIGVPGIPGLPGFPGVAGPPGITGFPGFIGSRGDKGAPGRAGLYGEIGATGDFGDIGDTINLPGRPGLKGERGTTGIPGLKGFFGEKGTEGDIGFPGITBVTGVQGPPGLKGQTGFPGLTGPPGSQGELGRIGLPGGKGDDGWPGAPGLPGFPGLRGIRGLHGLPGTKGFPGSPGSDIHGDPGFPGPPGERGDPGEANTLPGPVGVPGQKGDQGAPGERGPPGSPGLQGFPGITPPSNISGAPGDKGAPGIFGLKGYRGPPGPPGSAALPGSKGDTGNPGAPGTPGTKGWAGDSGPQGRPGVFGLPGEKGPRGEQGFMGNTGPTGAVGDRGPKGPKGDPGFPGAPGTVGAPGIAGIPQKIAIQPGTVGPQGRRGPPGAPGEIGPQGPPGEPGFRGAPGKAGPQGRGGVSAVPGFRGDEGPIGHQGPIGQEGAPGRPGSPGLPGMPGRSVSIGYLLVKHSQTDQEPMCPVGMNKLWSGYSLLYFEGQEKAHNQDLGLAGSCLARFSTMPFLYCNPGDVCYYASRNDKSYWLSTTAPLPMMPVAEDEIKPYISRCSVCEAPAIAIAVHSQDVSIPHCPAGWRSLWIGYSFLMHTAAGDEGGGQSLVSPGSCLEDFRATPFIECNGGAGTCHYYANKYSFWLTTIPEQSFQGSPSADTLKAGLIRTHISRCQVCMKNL

fold tighter binding, denatured over native form [1]: 8 fold
fold tighter binding, denatured over native form (denatured collagen V): 10 fold
fold tighter binding, denatured over native form (denatured collagen III): 7 fold
EC50 (read off the curve) [2]: 100 ng/mL
inhibition of human endothelial cell adhesion to denatured collagen type-I [3]: 40%
inhibition of human endothelial cell migration on denatured collagen-I [3]: 80%
fold affinity, denatured over native collagen type-IV [4]: 10 fold
fold apparent reactivity, denatured over native collagen type-I [5]: > 10 fold
Substance: HUI77, murine IgM anti-denatured-collagen monoclonal antibody

pKd [6]: 5.77
ka2 [7]: 1.8e-06 RU s-1
kd2 [7]: 0.0017 s⁻¹
ka2 [8]: 4.3e-06 RU s-1
kd2 [8]: 0.0024 s⁻¹
koff [9]: 0.038 s⁻¹
kon [9]: 5800 M⁻¹ s⁻¹
koff [10]: 0.1 s⁻¹
kon [10]: 57800 M⁻¹ s⁻¹
pKd [11]: 4.96
pKd [12]: 5.11
pKd [13]: 5.00
ka2 [14]: 6.6e-06 RU s-1
kd2 [14]: 0.014 s⁻¹
pKd [15]: 5.89
pKd [16]: 5.19
ka2 [17]: 7.1e-06 RU s-1
kd2 [17]: 0.00099 s⁻¹
koff [18]: 0.057 s⁻¹
kon [18]: 41900 M⁻¹ s⁻¹
ka2 [19]: 5.2e-06 RU s-1
kd2 [19]: 0.006 s⁻¹
koff [20]: 0.21 s⁻¹
kon [20]: 26800 M⁻¹ s⁻¹
koff [21]: 0.52 s⁻¹
kon [21]: 42800 M⁻¹ s⁻¹
pKd [22]: 7.20 to 7.52
koff [23]: 0.33 s⁻¹
kon [23]: 32700 M⁻¹ s⁻¹
Substance: D93, recombinant humanized IgG1 kappa antibody targeting denatured-collagen
